From patent US12576154B2, “Conjugates of PSMA-binding moieties with cytotoxic agents” (PHILOCHEM AG, priority 2022, dated 2026)

Key:
[1] = system: HT1080.hPSMA tumor; test: MMAE release from conjugates in HT1080.hPSMA tumor model (comparison and timepoint study); format: in vivo, mice; conditions: HT1080.hPSMA tumor, n=3
Description: (§1) HT1080.hPSMA tumor cells were grown to 90% confluence and detached with Trypsin-EDTA 0.05%. Cells were resuspended in Hank's Balanced Salt Solution (HBSS) at a density of 5×10^7 cells/mL. 100 μL of HT1080.hPSMA cells (5×10^6 cells) were injected subcutaneously in the right flank of female athymic Balb/c AnNRj-Foxn1 mice (6 to 8 weeks of age). Tumors were grown until ˜250 mm^3 volume (average).
Comparison study: 0.1 mL of 50 μM solutions (2% DMSO, PBS, 250 nmol/kg) of the four conjugates (1 to 4) were injected intravenously. The animals were sacrificed in groups of 3 after 24 h, and blood and the following organs were extracted: HT1080.hPSMA tumor, heart, lungs, liver, kidney, spleen, stomach. The blood fraction was centrifuged, and the plasma (supernatant) was extracted. The organs were stored at −80° C. before being used for further analysis.
(§2) Timepoint study: 0.1 mL of a 50 μM solution (2% DMSO, PBS, 250 nmol/kg) of conjugate 1 was injected intravenously into the tail vein of the mice. The animals were sacrificed in groups of 3 after 6 h, 24 h, 48 h, and 72 h, and blood and the following organs were extracted: HT1080.hPSMA tumor, heart, lungs, liver, kidney, spleen, stomach. The blood fraction was centrifuged, and the plasma (supernatant) was extracted. The organs were stored at −80° C. before being used for further analysis.
Frozen plasma (50 μL) and mouse tissues (˜50 mg) were thawed, and 500 μL of PBS was added. Samples were kept on ice, and 50 μL solution of internal standard (d8-MMAE, 50 nM) was added. Samples were then homogenized at 4° C. with a tissue lyser for 2 minutes at 30 Hz for 4 cycles. After homogenization, samples were centrifuged (21'000 g, 10 min). Subsequently, 100 μL of supernatants were collected and added to 900 μL of acetonitrile (ACN) to induce protein precipitation. After centrifugation (21'000 g, 10 min), 800 μL of supernatants were collected and dried at room temperature with a vacuum centrifuge. Pellets were then resuspended in 20 μL of an aqueous solution containing 3% ACN and 0.1% of HCOOH, and 5 μL were injected into the UHPLC-MS system. Chromatographic separation was carried out on a Hypersil Gold C18 column (100 mm×2.1 mm, 1.9 μm particle size, 175 Å pore size) column temperature was set at 50° C. and a flow rate of 700 μL/min with a gradient program from 95% A (water+0.1% HCOOH), 5% B (ACN+0.1% HCOOH) to 35% of A in 2.5 minutes, from 35% A to 5% A in 0.4 minutes and 5% A was kept for 1.3 minutes before reconditioning at 95% A. The LC system was coupled to a Q-Exactive mass spectrometer via an Ion Max HESI Source. Ionization was carried out with a spray voltage of 3.5 kV; Sheath gas 40 units; Aux gas 10 units; capillary temperature of 380° C.; Aux gas temperature 450° C.; S-lens RF level 60. The mass spectrometer was operating in targeted Single Ion Monitoring mode (t-SIM) following the molecular ion 718.5113 m/z. The detector was working in positive ionization mode with the following parameters: resolution 70'000 (FWHM at 200 m/z); AGC target of 5×10^4; maximum injection time of 200 ms; isolation window 14 m/z; isolation offset 5 m/z. Peak areas of analytes and internal standards were integrated, and corresponding ratios were calculated. The ratios were then transformed into pmol/g of wet tissue using single-concentration external calibration points and corrected by the total weight of the sample analysed. The percentage of injected dose per gram (% ID/g) was finally calculated by normalizing the value based on the total dose injected into the mouse. Data analysis was performed with Skyline v22.2.0.351.

[2] = system: HT1080.hPSMA tumor; test: MMAE release at different time points in HT1080.hPSMA tumor model (Conjugate 7 vs Conjugate 1); format: in vivo, mice
Description: as §1, with “a” for “a density of”, “cells/mL density.” for “cells/mL.”
as §2, with “0.1” for “Timepoint study: 0.1”, “of Conjugate 7” for “of conjugate 1”, “sacrificed” for “sacrificed in groups of 3”, “h, or” for “h, and”, “72 h (n=3/group),” for “72 h,”
Frozen plasma (50 μL) and mouse tissues (˜50 mg) were thawed, and 500 μL of PBS was added. Samples were kept on ice, and 50 μL solution of internal standard (d8-MMAE, 50 nM) was added. Samples were then homogenized at 4° C. with a tissue lyser for 2 minutes at 30 Hz for 4 cycles. After homogenization, samples were centrifuged (21'000 g, 10 min). Subsequently, 100 μL of supernatants were collected and added to 900 μL of acetonitrile (ACN) to induce protein precipitation. After centrifugation (21'000 g, 10 min), 800 μL of supernatants were collected and dried at room temperature with a vacuum centrifuge. Pellets were then resuspended in 20 μL of an aqueous solution containing 3% ACN and 0.1% of HCOOH, and 5 μL were injected into the UHPLC-MS system. […] Peak areas of analytes and internal standards were integrated, and corresponding ratios were calculated. The ratios were then transformed into pmol/g of wet tissue using single-concentration external calibration points and corrected by the total weight of the sample analysed. The percentage of injected dose per gram (% ID/g) was finally calculated by normalizing the value based on the total dose injected into the mouse. […]

CC[C@H](C)[C@@H]([C@@H](CC(=O)N1CCC[C@H]1[C@H](OC)[C@@H](C)C(=O)N[C@H](C)[C@@H](O)c1ccccc1)OC)N(C)C(=O)[C@@H](NC(=O)[C@H](C(C)C)N(C)C(=O)OCc1ccc(NC(=O)[C@@H]2CCCN2C(=O)CNC(=O)CCCCCN2C(=O)CC(SC[C@H](N)C(=O)NCCCCCC(=O)NC[C@H]3CC[C@H](C(=O)N[C@@H](Cc4ccc5ccccc5c4)C(=O)NCCCC[C@H](NC(=O)N[C@@H](CCC(=O)O)C(=O)O)C(=O)O)CC3)C2=O)cc1)C(C)C (some centres unmarked) [Conjugate 1]
Timepoint study of MMAE release ([1]; 6 h, 24 h, 48 h, 72 h after i.v. 250 nmol/kg): stable payload accumulation in the tumors over an extended time | MMAE release in tumor ([1]; 24 hours after intravenous injection, 250 nmol/kg): 4.5 % ID/g | MMAE release at 6 h ([2]; 6 h after i.v. 250 nmol/kg, n=3): 200 pmol/g | MMAE release at highest accumulation point (average) ([2]; 24 h after i.v. 250 nmol/kg, n=3): approx. 300 pmol/g | Time of highest accumulation point of released MMAE ([2]; i.v. 250 nmol/kg, time points 6, 24, 48, 72 h): 24 h
